The values below come from patent US20050019808A1 (WISCONSIN ALUMNI RESEARCH FOUNDATION, published 2005).

Series [1] concerns the molecule itself. In words: SDS-PAGE and Western, self-association (dimer).
In series [2] the target is T1, B23 (nucleophosmin) (UniProt P06748 1-294).
T1 construct: Endogenous protein of HeLa cells; also called protein B23; ribosomal chaperone protein B23
In words: mobility shift, 4% native PAGE, Western with Ab-B23; not sensitive to RNaseA.

Series [3] concerns the molecule itself. In words: SDS-PAGE and Western, self-association (results not shown).

T1 sequence (P06748 whole entry): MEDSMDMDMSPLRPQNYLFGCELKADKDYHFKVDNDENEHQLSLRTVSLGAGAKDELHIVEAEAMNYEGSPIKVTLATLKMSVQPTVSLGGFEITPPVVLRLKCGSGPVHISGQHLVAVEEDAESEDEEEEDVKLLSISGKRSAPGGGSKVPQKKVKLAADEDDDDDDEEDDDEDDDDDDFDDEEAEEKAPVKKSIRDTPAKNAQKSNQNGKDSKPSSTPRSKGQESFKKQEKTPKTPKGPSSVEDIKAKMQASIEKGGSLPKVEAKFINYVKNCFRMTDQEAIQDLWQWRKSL

B1: recombinant Mengo 2A protein (other)
chain: SPNPLDVSKTYPTLHILLQFNHRGLEARIFRHGQLWAETHAEVVLRSKTKQISFLSNGSYPSMDATTPLNPWKSTYQAVLRAEPHRVTMDVYHKRIRPFRLPLVQKEWRTCEENVFGLYHVFETHYAGYFSDLLIHDVETNPG
notes: domain: 2A; also called r2A; recombinant 2A
B1: the binding result in series [1] and in series [2] was “binds” each time.

B2: recombinant Mengo 2B protein (other)
chain: PFTFKPRQRPVFQTQGAAVSSMAQTLLPNDLASKAMGSAFTALLDANEDAQKAMKIIKTLSSLSDAWENVKGTLNNPEFWKQLLSRCVQLIAGMTIAVMHPDPLTLLCLGVLTAAEITSQTSLCEEIAAKFKTIFTTPPPRFPVISLFQQQ
notes: domain: 2B; also called recombinant 2B protein
Take B2: the binding result in series [3] is recorded as “binds”.
